# T1: C-terminal recombinant protein of F3374 (437-730 amino acids, His-tag)
# T1 chain: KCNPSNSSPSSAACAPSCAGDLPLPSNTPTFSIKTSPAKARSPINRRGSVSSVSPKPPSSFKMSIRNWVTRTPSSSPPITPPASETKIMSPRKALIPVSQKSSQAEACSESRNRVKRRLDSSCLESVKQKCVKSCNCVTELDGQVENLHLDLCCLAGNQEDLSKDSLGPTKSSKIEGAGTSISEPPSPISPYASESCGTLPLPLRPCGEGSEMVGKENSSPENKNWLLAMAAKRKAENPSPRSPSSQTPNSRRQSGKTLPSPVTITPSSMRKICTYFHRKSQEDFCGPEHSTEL
# Molecular target: T1, C-terminal recombinant protein of F3374 …
protein,measurement,value
full-length recombinant protein of AURKB (Upstate) (protein) MAQKENSYPWPYGRQTAPSGLSTLPQRVLRKEPVTPSALVLMSRSNVQPTAAPGQKVMENSSGTPDILTRHFTIDDFEIGRPLGKGKFGNVYLAREKKSHFIVALKVLFKSQIEKEGVEHQLRREIEIQAHLHHPNILRLYNYFYDRRRIYLILEYAPRGELYKELQKSCTFDEQRTATIMEELADALMYCHGKKVIHRDIKPENLLLGLKGELKIADFGWSVHAPSLRRKTMCGTLDYLPPEMIEGRMHNEKVDLWCIGVLCYELLVGNPPFESASHNETYRRIVKVDLKFPASVPMGAQDLISKLLRHNPSERLPLAQVSAHPWVRANSRRVLPPSALQSVA,"in vitro kinase assay (32P, autoradiography)",found phosphorylation of the F3374 protein by AURKB in vitro

# Reference: US20110135647
